Publication PMC5552228, “Mapping the contact surfaces in the Lamin A:AIMP3 complex by hydrogen/deuterium exchange FT-ICR mass spectrometry” (PLoS ONE, 2017)

Molecular target: T1, His-Tev-AIMP3 (aminoacyl-tRNA synthetases-interacting multifunctional protein 3) (human, UniProt O43324 1-174)
T1 construct: also called AIMP3/p18; MSC p18; source: E. coli BL21 (DE3), pET28a, purified (Ni-HiTrap, desalting column); not shown: His6-Tev (6-his tag and Tobacco Etch Virus protease cutting site, aa1-22 of the construct), N-terminal, kept
T1 sequence (looked up): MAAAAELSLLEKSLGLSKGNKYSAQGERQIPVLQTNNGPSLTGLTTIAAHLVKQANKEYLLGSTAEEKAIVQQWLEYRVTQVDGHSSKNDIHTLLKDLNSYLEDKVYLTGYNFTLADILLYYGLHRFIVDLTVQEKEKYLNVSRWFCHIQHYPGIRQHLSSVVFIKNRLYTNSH
Assay: HDX-MS; AIMP3 and LmnA mixed in 1:1 ratio, 40 uM stock, 20 mM Hepes, 150 mM NaCl, pH 7.5, diluted into D2O; 0.5-240 min at 0.4 °C; protease type XIII digestion; LC-ESI 14.5 T FT-ICR MS; free against complexed protein
Conditions: both partners purified

binding result: binds
B1: His-Strep-TrxA-LmnA (C-terminal part of Lamin A, 567-646) (domain or fragment, UniProt P02545 567-646, looked up)
chain: GSHCSSSGDPAEYNLRSRTVLCGTCGQPADKASASGSGAQVGGPISSGSSASSVTVTRSYRSVGGSGGGSFGDNLVTRSY
notes: C-terminal part of mature Lamin A, residues 567-646 by the methods (the results say aa567-647, 80 aa); ends in NLVTRSY (203-209 of the construct); also called LmnA C-terminus; LmnA (aa567-647); source: E. coli BL21 (DE3), pET28a, purified (as for AIMP3: Ni-HiTrap, desalting column); not shown: His, N-terminal, kept; Strep, N-terminal, kept; TrxA (thioredoxin), N-terminal, kept
